Laboratory results as given in patent US20090062150A1 (published 2009).

Target: T1, 7-mer (AGAIAGG) derived from Toxoplasma gondii micronemal proteins (MIC2) (Toxoplasma gondii)
T1 construct: also called MIC2 peptide; MC2
Assay: crystal soak, X-ray structure

B1: N-terminally truncated GlpG transmembrane core domain (residues 87-276), E. coli rhomboid protease (enzyme)
chain: AALRERAGPVTWVMMIACVVVFIAMQILGDQEVMLWLAWPFDPTLKFEFWRYFTHALMHFSLMHILFNLLWWWYLGGAVEKRLGSGKLIVITLISALLSGYVQQKFSGPWFGGLSGVVYALMGYVWLRGERDPQSGIYLQRGLIIFALIWIVAGWFDLFGMSMANGAHIAGLAVGLAMAFVDSLNARKRK
notes: range 87-276; also called GlpG core; truncated GlpG core domain
binding result: binds
